# According to paper PMC6995008 (Proceedings of the National Academy of Sciences of the …, 2020):
# Experiments:
# [1] = molecular target: RABV SAD-B19 large polymerase protein (L), 6xHis-tagged (rabies virus (RABV) SAD-B19, UniProt P16289 1-2127); test: negative-stain electron microscopy
# [2] = molecular target: the molecule itself; test: negative-stain electron microscopy
# Chain of RABV SAD-B19 large polymerase protein (L), 6xHis-tagged (P16289 whole entry): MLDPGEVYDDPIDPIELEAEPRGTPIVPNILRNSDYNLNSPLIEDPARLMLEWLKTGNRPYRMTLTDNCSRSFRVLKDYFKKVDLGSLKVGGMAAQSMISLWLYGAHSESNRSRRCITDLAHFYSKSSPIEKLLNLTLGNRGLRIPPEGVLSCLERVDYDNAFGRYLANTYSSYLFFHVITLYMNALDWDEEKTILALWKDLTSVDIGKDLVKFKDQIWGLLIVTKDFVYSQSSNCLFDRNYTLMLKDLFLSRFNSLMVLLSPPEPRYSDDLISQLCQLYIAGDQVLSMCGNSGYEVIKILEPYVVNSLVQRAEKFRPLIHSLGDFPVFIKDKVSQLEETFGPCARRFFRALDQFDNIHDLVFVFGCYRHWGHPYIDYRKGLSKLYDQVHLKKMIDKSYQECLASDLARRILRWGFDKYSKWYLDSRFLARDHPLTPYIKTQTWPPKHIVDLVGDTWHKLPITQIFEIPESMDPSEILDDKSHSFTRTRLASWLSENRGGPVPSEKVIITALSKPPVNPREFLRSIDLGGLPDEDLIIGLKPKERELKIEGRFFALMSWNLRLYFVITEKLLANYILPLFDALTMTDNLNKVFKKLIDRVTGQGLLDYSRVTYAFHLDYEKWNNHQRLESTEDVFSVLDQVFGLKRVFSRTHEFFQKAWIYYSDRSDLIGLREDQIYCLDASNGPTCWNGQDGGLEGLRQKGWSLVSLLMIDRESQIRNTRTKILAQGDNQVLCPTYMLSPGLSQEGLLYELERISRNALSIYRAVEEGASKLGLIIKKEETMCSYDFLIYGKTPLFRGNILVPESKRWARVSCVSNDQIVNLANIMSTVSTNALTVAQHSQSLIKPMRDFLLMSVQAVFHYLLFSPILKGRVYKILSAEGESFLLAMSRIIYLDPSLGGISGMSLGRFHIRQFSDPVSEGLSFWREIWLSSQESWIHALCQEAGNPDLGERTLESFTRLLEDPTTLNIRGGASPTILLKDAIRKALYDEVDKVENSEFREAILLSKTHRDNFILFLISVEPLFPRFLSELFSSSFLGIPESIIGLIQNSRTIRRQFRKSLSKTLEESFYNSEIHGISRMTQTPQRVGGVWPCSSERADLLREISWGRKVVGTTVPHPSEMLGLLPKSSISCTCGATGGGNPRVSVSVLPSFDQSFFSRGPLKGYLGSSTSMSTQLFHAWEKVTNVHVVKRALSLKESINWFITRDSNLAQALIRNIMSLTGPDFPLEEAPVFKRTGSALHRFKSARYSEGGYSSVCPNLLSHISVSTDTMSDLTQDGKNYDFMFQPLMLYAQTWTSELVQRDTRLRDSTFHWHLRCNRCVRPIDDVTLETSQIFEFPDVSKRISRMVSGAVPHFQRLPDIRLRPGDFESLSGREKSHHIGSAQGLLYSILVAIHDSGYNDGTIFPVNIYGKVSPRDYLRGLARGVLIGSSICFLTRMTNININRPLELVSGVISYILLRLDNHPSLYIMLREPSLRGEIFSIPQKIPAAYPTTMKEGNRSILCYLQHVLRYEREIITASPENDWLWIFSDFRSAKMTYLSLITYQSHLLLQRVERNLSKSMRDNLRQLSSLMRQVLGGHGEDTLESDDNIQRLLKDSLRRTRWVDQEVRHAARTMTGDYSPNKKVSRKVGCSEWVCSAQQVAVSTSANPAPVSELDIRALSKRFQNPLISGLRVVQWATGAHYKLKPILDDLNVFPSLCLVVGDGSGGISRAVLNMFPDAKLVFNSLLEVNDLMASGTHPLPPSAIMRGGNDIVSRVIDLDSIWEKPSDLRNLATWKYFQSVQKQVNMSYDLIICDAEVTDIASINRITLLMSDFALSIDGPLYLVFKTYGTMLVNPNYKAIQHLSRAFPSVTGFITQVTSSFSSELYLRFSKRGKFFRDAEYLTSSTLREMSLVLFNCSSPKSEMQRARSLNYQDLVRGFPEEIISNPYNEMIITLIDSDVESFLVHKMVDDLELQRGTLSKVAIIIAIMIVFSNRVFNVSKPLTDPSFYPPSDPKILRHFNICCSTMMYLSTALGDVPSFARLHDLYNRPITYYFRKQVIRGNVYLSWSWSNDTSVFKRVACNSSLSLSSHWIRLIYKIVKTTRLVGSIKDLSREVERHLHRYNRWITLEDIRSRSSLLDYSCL
binder,measurement,setting,value
RABV SAD-B19 full-length P (PFL) with C-terminal StrepII tag (natural protein) MSKIFVNPSAIRAGLADLEMAEETVDLINRNIEDNQAHLQGEPIEVDNLPEDMGRLHLDDGKSPNHGEIAKVGEGKYREDFQMDEGEDPSFLFQSYLENVGVQIVRQMRSGERFLKIWSQTVEEIISYVAVNFPNPPGKSSEDKSTQTTGRELKKETTPTPSQRESQSSKARMAAQIASGPPALEWSATNEEDDLSVEAEIAHQIAESFSKKYKFPSRSSGILLYNFEQLKMNLDDIVKEAKNVPGVTRLAHDGSKLPLRCVLGWVALANSKKFQLLVESDKLSKIMQDDLNRYTSC,binding result,[1],binds
same,stoichiometry N,[2],2
